Here are results for one molecule from KR20210097819A (dated 2021).

In this assay the target is T1, human TNFα N-his trimer (human, UniProt P01375 77-233).
T1 construct: Captured on an NTA sensor chip through the N-terminal His tag for Biacore; also called His-tagged TNF (made by ESBATech); not shown: N-terminal His tag
Put plainly: SPR (BIAcore T100), His-tagged TNFα captured on an NTA chip, scFv as analyte.

As a reminder, the Kd is the constant that tells how readily two partners part at equilibrium. A lower Kd goes with tighter binding.

T1 sequence (P01375 77-233 limits assumed): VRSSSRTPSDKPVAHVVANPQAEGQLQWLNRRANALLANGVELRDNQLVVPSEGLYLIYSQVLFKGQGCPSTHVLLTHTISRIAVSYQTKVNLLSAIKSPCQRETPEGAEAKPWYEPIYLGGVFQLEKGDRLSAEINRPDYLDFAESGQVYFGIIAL

B1: EP43max (scFv)
chain: EIVMTQSPSTLSASVGDRVIIKCQASQSISDWLAWYQQKPGKAPKLLIYGASRLASGFPSRFSGSGSGAEFTLTISGLEPADFATYYCQQGWSDSYVDNLFGQGTKLTVLGGGGGSGGGGSGGGGSGGGGSEVQLVESGGGLVQPGGSLRLSCTVSGFSLSSGAMSWVRQAPGKGLEWVGVIISSGATYYASWAKGRFTISKDTSKNTVYLQMNSLRAEDTAVYYCARGGPDDSNSMGTFDPWGQGTLVTVSS
On to B1, for which the Kd was determined as 0.25 nM.
